Reference: a protein production outcome set (Wang et al. 2014)

Experiment: label from the status in PepcDB records

Sequence | protein production
MAIARALRDELSFGAVSRRENPVSAHIPYSRHVSDEVIKTQDGMLMSFVHMSGLCFETIDIAEINSRLLGRNDLIRGLANSRYAIYSHIVRREVKPAIESSFENKFCQELDQRYTAALRTQRMFVNDIYLTIVRRELQGTVGTADLVIRKLLGRRAADGRSSSEERALIELTDVMKAVRESLQAYGARVLTVVKRNDVWHSEPLEFLVQLVNGGFPRPMALPRMKLAEALATKRLFFGPNALEIRGAFPGETRYGAIISVGEYPSITGPGMLNPMLKVPHEFIVTQSFAIIDKPQALTQMERVGRKIDMSDEADSIVGDQLGEARDELLSSEALYGLHHLTVLCLGKTMDDVARCVTDVGTALTEVSALWVREDLNCEPAFWATLPGNFAYVARKSMISSKNMAGFSAFHNYPSGRTGGVHWGMPISVLETTSQTAYFFNFHVRDLGNFTLNGPSGSGKTVLLGFLAAQAQRITPRPKLVMIDKDRGLDIFVRSLGGRYEVLKAGEPSGFNPLRLPDTPRNREFLFQLFSFILRRSDGYAHSTREEQVIRNAIAQVASAPPEGRTMEEFAELLRGAMRAGDDDLYSRLQPWMRPDQRGWLFNNAEDSFSMSSIFGFDMTSVLSDATTSTAALLYIFHRIEELLDGQPVMIFLDEGWKLLDNDIFSYFIKDKLKTIRKLNGIIGFGTQSAADIVKSSIANTLIEQTPTNIFFPNPKADEESHRAFGLSEREIKWIRETPPEARKFLIKHDQDSVIARLNLGAMPDAIKILSGRIETVQELDALRARVGDDPDVWLPVFLGRDPE | failed
IIWDWNVERDRIIVHPDMKSLFGTETHKLNGPMQNWISALHHDDRERFQAVLDIILKNKKGRIDQIFRLSSGGGYYHWFSLRARPAMQKDGKITRVIGTIVNITNHKKA | failed
MKTWIFICMSIAMLLWFLSTLRRKPSQKKGCIDAIIPAYNEGPCLAQSLDNLLRNPYFCRVICVNDGSTDNTEAVMAEVKRKWGDRFVAVTQKNTGKGGALMNGLNYATCDQVFLSDADTYVPPDQDGMGYMLAEIERGADAVGGIPSTALKGAGLLPHIRATVKLPMIVMKRTLQQLLGGAPFIISGACGMFRTDVLRKFGFSDRTKVEDLDLTWTLVANGYRIRQANRCIVYPQECNSPREEWRRWRRWIVGYAVCMRLHKRLLFSRFGIFSIFPMLLVVLYGVGIYLTTWFNEFITTGPHGVVLAMFPLIWVGVVCVIGAFSAWFHRCWLLVPLAPLSVVYVLLAYAIWIIYGLIAFFTGREPQRDKPTRYSALVEASTAYSQPSVTGTEKLSEA | failed
NIPEIENANLKPALKDSVLPDGFYSTTNHPTHVKVNDEWIEVANPKMDAVIVVYPEEKRAETKVIRKVKKGDFVLIGHNGIRVMPPEKSREAGQLFEFMNSEVSSEKPKEAIIKRIAKEMHEIREEYKKTGTGGIAIVGGPAIIHTGGGPALAKMVELGYIQAILAGNALATHDIESALYGTSLGVNIKTAKPVTGGHKHHIYAINAINDAGNIKNAVESGVLKEGIMYQCIKNNIPYVLAGSIRDDGPIPDVITDSMVAQDKMRTTVMDKKMVIMLSTLLHSVATGNLMPSYIKTVCVDIQPSTVTKLMDRGTSQAIGVVTDVGVFLVLLLKELERLELQE | not failed
MAMAVSGAVLSGLGSSFLTGGKRGATALASGVGTGAQRVGRKTLIVAAAAAQPKKSWIPAVKGGGNFLDPEWLDGSLPGDFGFDPLGLGKDPAFLKWYREAELIHGRWAMAAVLGIFVGQAWSGVAWFEAGAQPDAIAPFSFGSLLGTQLLLMGWVESKRWVDFFNPDSQSVEWATPWSKTAENFANYTGDQGYPGGRFFDPLGLAGKNRDGVYEPDFEKLERLKLAEIKHSRLAMVAMLIFYFEAGQGKTPLGALGL | failed
YCEFLNNELRAHASDLLPTAPVPTMMLDRAWDEATLHNITQLIYDVRKDDALFRREISKPGAFDLMRKNYWDRREYSAVTLVGNETCNLAPLAELGFQIEVSQ | failed
MSLQLRLALNQIDSTVGDIAGNAEAILRWTRHSAEQGAHLVAFPEMALTGYPVEDLALRSSFVEASRTALRELAARLAEEGFGELPVLVGYLDRSESAQPKYGQPAGAPRNAAAVLHRGRVALTFAKHHLPNYGVFDEFRYFVPGDTMPIVRLHGVDIALAICEDLWQDGGRVPAARSAGAGLLLSVNASPYERDKDDTRLELVRKRAQEAGCTTAYLAMIGGQDELVFDGDSIVVDRDGEVVARAPQFSEGCVVLDLDLPAAEAEPPTGVVDDGLRIDRLVISEEPLPAYEAELAGGYADRLDADEEVYSALVVGLRAYVAKNGFRSVLIGLSGGIDSALVAAIACDALGAQNVYGVSMPSKYSSDHSKGDAAELARRTGLNFRTVSIEPMFDAYMASLGLTGLAEENLQSRLRGTTLMAISNQEGHIVLAPGNKSELAVGYSTLYGDSVGAYGPIKDVYKTSIFRLAEWRNRAAAERGQTPPIPEASITKPPSAELRPGQVDTDSLPDYPVLDAILELYVDRDTGADAIVAAGYDRELVVKTLRMVDTAEYKRRQYPPGTKISAKGFGKDRRLPITNRWREGHHHHHH | not failed
MDSGKSRSLETTVKRVYRDLLLPKINTSKKMSTLTNSPSSLEGTPGIKKNSGEMQAEASAERVKLTKSIKEKQNNELEKVALKRKADSEEKLVGKKEAKIMELDNQLVTTVPLPHIPLKNIMDVEMKLVYVDEEDVSYEFAQPNMCLGLQATGQTATTMPPASPRDLTTLPQIDKWLQVALKDASSCYRQKKYAVAAGQFRTALELCSKGAALGKPFEAHAEDIASIASFIETKLVTCYLRMRKPDLALNHAHRSIVLNPAYFRNHLRQAAVFRCLERYSEAARSAMIADYMFWLCGGSEHSVSKLIKLYWQAMIEEAITRAEAFSVMYTPFATRIKPENIEKVKEVFMRTHPTYVDCIYTDTQGLHVLPQTADWSCFPPQQYLLTLGFKNKEDGKFLEKVSSRKLPTYTEHKTPFSPLTREDTVRHMETVGKRILPILDFIRSTQLNGNFHACSGVMEKLHYASLLSRLQRVKEQAQVINQAMAELATVPYLQDISQQEAELLQSLMADAMDTLEGKKSDKERVWNTIQKVKF | failed
MRVVRGDVARRALSIGWPLVVADSALSIAWIVDTYFVGGLGSESIAAVGAAGYLIWLYMVFSTLVYMGVLVILGQAIGSGNRGLVERAAGEGLTLSILLSIIVCAAAFAASKQLLVVLAPEVDQLAWEYLSVSLLTVALHYVTILYDAVFRALGKTMPILYSSGVFTLANTALDPILIYGRLGAPALGVEGAAWASVAASLLGLLVLVYLSRYLDVGLRPLRPTSVSRSILALGFPSMVERVVFVVGNVVYLGSVSRCGADALAAHTIGVRIESLAFLPLFSIATASGVMVGWEVGAGRIAESKSTGWELIKLSSLIGLVVGAALALGGWLVTPIFTGDPRVAWLAALYLVIAGLTEPLLGVVMVAGQIIRNAGDTRTPTLVNLGSLYILRVVPAYLLPGLMPTGLCVLGAWLAMGIDIVGRAAAIVFIYLRYYTRLARRVA | failed
MSLKARLALFFALSIGLALFFQGALSYVAFKGLLEADLDRSLLFYARALAEGRPSPRGEFAFRLAQGGAETKSPNFPDLPPLAPGRYWKEGWRVWVLEAPGGTLTVARYEPEALLALSRFRLVLFASGAALTLAFALLAGHLAGVALRPLSRLTEVARRVADSQDLSHRVPPEGGGELKTLAEAFNHMLERLEAFLEREKRFTRDAAHELRTPVAAALAQLEAAEGGYLSEGEALQATKEELLRMKRLVEALLVLAREGRVTPVPLDLAALAREEARAFGVPYRGPETLPYEGDPLLLAQALRNLLRNAFLHGEGKGVEVRLSQEGEDLVLEVKDEGPGMPEEALKEAGRPFFRASPKPGEGLGLSVAKKVAEAHGGALVLVPRKPTGLTARLLLPANPRLTGTP | failed
MFKTVIIMLMAVSAGTIGDILLAKGMKELGDLSAMNLRGILNVAGQALTSPKLIFGTAMLAIFFFLWLAVLSWEDLSVALPMQALNYVLVAFLSQWFLGETVSPLRWTGTIMVCVGVMLITKSGTP | failed
KALAHAKNDSVAVATDDLKEGEEIQVAFLDNNEKTKITTAEVIPLGHKISLKDIKKGENVIEYGEVIGAATKDIKRGEHVHIHNIKSLRW | failed
MSKVALFSHVSPDGDCIGSMLGIGLALEALGKEVAMFNPDPIPRNLSFLPGVDKITQSMPDPLPETLLFVDCADLQRVQLQREDLPADAVILNLDHHISNQNFGRINWVDSQAAASGELAYALVRRLNVELTQEIAANFYTALLTDTGSFKYANTTAKTHQIAGELMELEHHHHHH | failed
MDKNIIIGAMTALITPFKNGKVDEQSYARLIKRQIENGIDAVVPVGTTGESATLTHEEHRTCIEIAVETCKGTKVKVLAGAGSNATHEAVGLAKFAKEHGADGILSVAPYYNKPTQQGLYEHYKAIAQSVDIPVLLYNVPGRTGCEISTDTIIKLFRDCENIYGVKEASGNIDKCVDLLAHEPRMMLISGEDAINYPILSNGGKGVISVTSNLLPDMISALTHFALDENYKEAKKINDELYNINKILFCESNPIPIKTAMYLAGLIESLEFRLPLCSPSKENFAKIEEVMKKYKIKGF | not failed
MERKISDEECPVRKSMQIFAGKWTLLIIFQINRRIIRYGELKRAIPGISEKMLIDELKFLCGKGLIKKKQYPEVPPRVEYSLTPLGEKVLPIIDEIAKFGMENL | not failed
MSLRAVRLHAKWDPRPEFKLGPKDIEGKLTWLGSKVWRYPEVRVEEVPEPRIEKPTEIIIKVKACGICGSDVHMAQTDEEGYILYPGLTGFPVTLGHEFSGVVVEAGPEAINRRTNKRFEIGEPVCAEEMLWCGHCRPCAEGFPNHCENLNELGFNVDGAFAEYVKVDAKYAWSLRELEGVYEGDRLFLAGSLVEPTSVAYNAVIVRGGGIRPGDNVVILGGGPIGLAAVAILKHAGASKVILSEPSEVRRNLAKELGADHVIDPTKENFVEAVLDYTNGLGAKLFLEATGVPQLVWPQIEEVIWRARGINATVAIVARADAKIPLTGEVFQVRRAQIVGSQGHSGHGTFPRVISLMASGMDMTKIISKTVSMEEIPEYIKRLQTDKSLVKVTMLNEGHHHHHH | not failed
GKVSIPSIVYDIVRKNGGNKILLVGNGMLASEIAPYFSYPQYKVTVAGRNIDHVRAFAEKYEYEYVLINDIDSLIKNNDVIITATSSKTPIVEERSLMPGKLFIDLGNPPNIERGNNVITLDEIYEISKKNEMLREEKINQ | not failed
MDHKDYSRQNAERRLLLSKDEERIRDELEMEIERNLEGEFKDGIYNLALKLRRLYEQRREREELFDVSMRKSKRVLEVNINIKMEGDTKIEITEKKKEVDNEKTKKAENSDKRKKFVAVGEDKTGKEKMKNQTRAHELRWKW | failed
MSIPSFLKLVEIQTKIASVFPFMLGTLFVVYQYDMFKPINTLIIFGSMLIFDLTTTAINNYMDYRKATDNHDYDYRTTSNVIGQEQIPVRTVIITIFLMFFIATGLGVWLVFRTDLLVLLIGFVCFCIGILYTFGPVPLSRMPLGEIFSGVTMGFGIFFLAVYVNAYDAGIANLLWQGEMVTIQFNLIEIIRIGVVSLPCIFTIANIMLANNLCDLDEDIRNHRYTLPYYIGRKMGVLLFNTLYYASFLAVVVSVAINFLHPIMLLSLITIYPVYRNLVKFNKEQVKSKTFVIGIRNFVLINATLTILMAVSVVLQQLT | failed
MASSVLEMIKEEVTCPICLELLKEPVSADCNHSFCRACITLNYESNRNTDGKGNCPVCRVPYPFGNLKPNLHVANIVERLKGFKSIPEEEQKVNICAQHGEKLRLFCRKDMMVICWLCERSQEHRGHQTALIEEVDQEYKEKLQGALRKLMKKAKICDEWQDDLQLQRVDWENQIQINVENVQRQFKGLRDLLDSKENEELQKLKKEKKEVMEKLEESENELEDQTELVRDLISDVEHHLQLSTLEMLQGANCVLRRSQSLSLQQPQSVPQKRKRTFQAPDLKGMLQVYQGLMDIQQYWVHMTLHARNNAVIAINKEKRQIQYRSYNTVPVSEIYHLGVLGYPALSSGKHYWEVDISRSDAWLLGLNDGKCAQPQLHSKEEMGIKKNLHSQIKQNVLFQPKCGYWVIGMKNPSVYNAFDECSITHNSSILVISLPDCPSRVGVFLDRKAGTLSFYDVSNCGALIYRFYDPAFPVEVYPYFNPMKCSEPMTICGPPS | not failed
